Reference: article PMC3529917 (2012)

Target: complement C1q (Homo sapiens, UniProt P02745, C1q succinimidyl alkyne-labeled, Fz8 CRD IgG/Fc fusion)
Experiment: pull-down with ELISA quantification, Scatchard

B1: Frizzled-8 (Fz8/Fc) CRD (protein)
chain: AKELACQEITVPLCKGIGYNYTYMPNQFNHDTQDEAGLEVHQFWPLVEIQCSPDLKFFLCSMYTPICLEDYKKPLPPCRSVCERAKAGCAPLMRQYGFAWPDRMRCDRLPEQGNPDTLCMDY
Q: For B1, which Kd is on record?
A: Its Kd is 2.8 nM.
